3 substances from paper doi:10.1101/645523 can be followed below.

What all share (assay): cryo-EM structure
In assay [1] the target is Capsid associated protein P30 of bacteriophage PR772 (bacteriophage PR772).
Assay [2] concerns the target Host-recognition protein P5 of bacteriophage PR772 (bacteriophage PR772).
In assay [3] the target is Major capsid protein P3 of bacteriophage PR772 (bacteriophage PR772).

The stoichiometry N is the number of molecules, sites or subunits per partner or assembly. In turn, “Capsid associated protein P30 of bacteriophage PR772 (natural protein)” came in with a stoichiometry N in assay [1] of 2.
With “Host-recognition protein P5 of bacteriophage PR772 (natural protein)”, the stoichiometry N in assay [2] amounted to 3.
Regarding “Major capsid protein P3 of bacteriophage PR772 (natural protein)”, the stoichiometry N in assay [3] turned out to be 3.
